T1: biotin-labeled human CD154 (human, UniProt P29965 113-261, limits assumed, biotin-labeled)
T1 construct: also called biotinylated human CD154
T1 sequence (looked up): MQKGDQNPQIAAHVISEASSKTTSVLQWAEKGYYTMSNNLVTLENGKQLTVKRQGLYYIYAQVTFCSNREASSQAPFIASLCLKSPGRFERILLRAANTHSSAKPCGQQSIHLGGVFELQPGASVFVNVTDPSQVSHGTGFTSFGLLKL

B1: 154R4B07#1 (antibody, human IgG1, kappa, L234A L235A, N297A)
heavy: QVQLVESGGGLVQPGRSLRLSCAASGFTFSNAWMHWVRQAPGKGLEWVAQIKDRGNNYAAYYAESVKGRFTISRDDSKNSIYLQMNSLKTEDTAVYYCRYVHYGSYFFASFYFGVDIWGQGTTVTVSSASTKGPSVFPLAPSSKSTSGGTAALGCLVKDYFPEPVTVSWNSGALTSGVHTFPAVLQSSGLYSLSSVVTVPSSSLGTQTYICNVNHKPSNTKVDKKVEPKSCDKTHTCPPCPAPEAAGGPSVFLFPPKPKDTLMISRTPEVTCVVVDVSHEDPEVKFNWYVDGVEVHNAKTKPREEQYASTYRVVSVLTVLHQDWLNGKEYKCKVSNKALPAPIEKTISKAKGQPREPQVYTLPPSRCELTKNQVSLSCAVKGFYPSDIAVEWESNGQPENNYKTTPPVLDSDGSFFLVSKLTVDKSRWQQGNVFSCSVMHEALHNHYTQKSLSLSPDYKDDDDK
chain: EPKSSDKTHTCPPCPAPELLGGPSVFLFPPKPKDTLMISRTPEVTCVVVDVSHEDPEVKFNWYVDGVEVHNAKTKPREEQYNSTYRVVSVLTVLHQDWLNGKEYKCKVSNKALPAPIEKTISKAKGQPREPQVCTLPPSRDELTKNQVSLWCLVKGFYPSDIAVEWESNGQPENNYKTTPPVLDSDGSFFLYSKLTVDKSRWQQGNVFSCSVMHEALHNRYTQKSLSLSP
light: DIVMTQSPLSLPVTPGEPASISCRSSQSLVHSNRNTYLHWYQQKPGQAPRLLIYKVSNRFSGVPDRFSGSGSGTDFTLKISRVEAEDVGVYYCGQGTQVPYTFGQGTKLEIKRTVAAPSVFIFPPSDEQLKSGTASVVCLLNNFYPREAKVQWKVDNALQSGNSQESVTEQDSKDSTYSLSSTLTLSKADYEKHKVYACEVTHQGLSSPVTKSFNRGEC
notes: One-arm antibody
B2: 154R3A01#1 (antibody, human IgG1, kappa, L234A L235A, N297A)
heavy: QVQLVESGGGLVQPGRSLRLSCAASGFTFSNAWMHWVRQAPGKGLEWVAQIKDRVNQYANYYAESVKGRFTISRDDSKNSIYLQMNSLKTEDTAVYYCRYVHYGLTGYFSGQGGVDAWGQGTTVTVSSASTKGPSVFPLAPSSKSTSGGTAALGCLVKDYFPEPVTVSWNSGALTSGVHTFPAVLQSSGLYSLSSVVTVPSSSLGTQTYICNVNHKPSNTKVDKKVEPKSCDKTHTCPPCPAPEAAGGPSVFLFPPKPKDTLMISRTPEVTCVVVDVSHEDPEVKFNWYVDGVEVHNAKTKPREEQYASTYRVVSVLTVLHQDWLNGKEYKCKVSNKALPAPIEKTISKAKGQPREPQVYTLPPSRCELTKNQVSLSCAVKGFYPSDIAVEWESNGQPENNYKTTPPVLDSDGSFFLVSKLTVDKSRWQQGNVFSCSVMHEALHNHYTQKSLSLSPDYKDDDDK
chain: EPKSSDKTHTCPPCPAPELLGGPSVFLFPPKPKDTLMISRTPEVTCVVVDVSHEDPEVKFNWYVDGVEVHNAKTKPREEQYNSTYRVVSVLTVLHQDWLNGKEYKCKVSNKALPAPIEKTISKAKGQPREPQVCTLPPSRDELTKNQVSLWCLVKGFYPSDIAVEWESNGQPENNYKTTPPVLDSDGSFFLYSKLTVDKSRWQQGNVFSCSVMHEALHNRYTQKSLSLSP
light: DIVMTQSPLSLPVTPGEPASISCRSSQSLVHSNRNTYLHWYQQKPGQAPRLLIYKVSNRFSGVPDRFSGSGSGTDFTLKISRVEAEDVGVYYCGQGTQVPYTFGQGTKLEIKRTVAAPSVFIFPPSDEQLKSGTASVVCLLNNFYPREAKVQWKVDNALQSGNSQESVTEQDSKDSTYSLSSTLTLSKADYEKHKVYACEVTHQGLSSPVTKSFNRGEC
notes: One-arm antibody
B3: 154R4F08#1 (antibody, human IgG1, kappa, L234A L235A, N297A)
heavy: QVQLVESGGGLVQPGHSLRLSCAASGFTFSNAWMHWVRQAPGKGLEWVAQIKDRGNNYAAYYAESVKGRFTISRDDSKNSIYLQMNSLKTEDTAVYYCRYVHYGSYFFASFYFGVDIWGQGTTVTVSSASTKGPSVFPLAPSSKSTSGGTAALGCLVKDYFPEPVTVSWNSGALTSGVHTFPAVLQSSGLYSLSSVVTVPSSSLGTQTYICNVNHKPSNTKVDKKVEPKSCDKTHTCPPCPAPEAAGGPSVFLFPPKPKDTLMISRTPEVTCVVVDVSHEDPEVKFNWYVDGVEVHNAKTKPREEQYASTYRVVSVLTVLHQDWLNGKEYKCKVSNKALPAPIEKTISKAKGQPREPQVYTLPPSRCELTKNQVSLSCAVKGFYPSDIAVEWESNGQPENNYKTTPPVLDSDGSFFLVSKLTVDKSRWQQGNVFSCSVMHEALHNHYTQKSLSLSPDYKDDDDK
chain: EPKSSDKTHTCPPCPAPELLGGPSVFLFPPKPKDTLMISRTPEVTCVVVDVSHEDPEVKFNWYVDGVEVHNAKTKPREEQYNSTYRVVSVLTVLHQDWLNGKEYKCKVSNKALPAPIEKTISKAKGQPREPQVCTLPPSRDELTKNQVSLWCLVKGFYPSDIAVEWESNGQPENNYKTTPPVLDSDGSFFLYSKLTVDKSRWQQGNVFSCSVMHEALHNRYTQKSLSLSP
light: DIVMTQSPLSLPVTPGEPASISCRSSQSLVHSNRNTYLHWYQQKPGQAPRLLIYKVSNRFSGVPDRFSGSGSGTDFTLKISRVEAEDVGVYYCGQGTQVPYTFGQGTKLEIKRTVAAPSVFIFPPSDEQLKSGTASVVCLLNNFYPREAKVQWKVDNALQSGNSQESVTEQDSKDSTYSLSSTLTLSKADYEKHKVYACEVTHQGLSSPVTKSFNRGEC
notes: One-arm antibody
B4: CE115HA000 W33F one-arm antibody (antibody, human IgG1, kappa, L234A L235A, N297A, name in Kabat numbering)
heavy: QVQLVESGGGVVQPGRSLRLSCAASGFTFSNAFMHWVRQAPGKGLEWVAQIKAKSNNYATYYAESVKGRFTISRDDSKNSLYLQMNSLKTEDTAVYYCRYVHYGAYYGVDAWGQGTTVTVSSASTKGPSVFPLAPSSKSTSGGTAALGCLVKDYFPEPVTVSWNSGALTSGVHTFPAVLQSSGLYSLSSVVTVPSSSLGTQTYICNVNHKPSNTKVDKKVEPKSCDKTHTCPPCPAPEAAGGPSVFLFPPKPKDTLMISRTPEVTCVVVDVSHEDPEVKFNWYVDGVEVHNAKTKPREEQYASTYRVVSVLTVLHQDWLNGKEYKCKVSNKALPAPIEKTISKAKGQPREPQVYTLPPSRCELTKNQVSLSCAVKGFYPSDIAVEWESNGQPENNYKTTPPVLDSDGSFFLVSKLTVDKSRWQQGNVFSCSVMHEALHNHYTQKSLSLSPDYKDDDDK
chain: EPKSSDKTHTCPPCPAPELLGGPSVFLFPPKPKDTLMISRTPEVTCVVVDVSHEDPEVKFNWYVDGVEVHNAKTKPREEQYNSTYRVVSVLTVLHQDWLNGKEYKCKVSNKALPAPIEKTISKAKGQPREPQVCTLPPSRDELTKNQVSLWCLVKGFYPSDIAVEWESNGQPENNYKTTPPVLDSDGSFFLYSKLTVDKSRWQQGNVFSCSVMHEALHNRYTQKSLSLSP
light: DIVMTQSPLSLPVTPGEPASISCRSSQSLVHSNRNTYLHWYQQKPGQAPRLLIYKVSNRFSGVPDRFSGSGSGTDFTLKISRVEAEDVGVYYCGQGTQVPYTFGQGTKLEIKRTVAAPSVFIFPPSDEQLKSGTASVVCLLNNFYPREAKVQWKVDNALQSGNSQESVTEQDSKDSTYSLSSTLTLSKADYEKHKVYACEVTHQGLSSPVTKSFNRGEC
B5: CE115HA000 Y59A one-arm antibody (antibody, human IgG1, kappa, L234A L235A, N297A, name in Kabat numbering)
heavy: QVQLVESGGGVVQPGRSLRLSCAASGFTFSNAWMHWVRQAPGKGLEWVAQIKAKSNNYATYAAESVKGRFTISRDDSKNSLYLQMNSLKTEDTAVYYCRYVHYGAYYGVDAWGQGTTVTVSSASTKGPSVFPLAPSSKSTSGGTAALGCLVKDYFPEPVTVSWNSGALTSGVHTFPAVLQSSGLYSLSSVVTVPSSSLGTQTYICNVNHKPSNTKVDKKVEPKSCDKTHTCPPCPAPEAAGGPSVFLFPPKPKDTLMISRTPEVTCVVVDVSHEDPEVKFNWYVDGVEVHNAKTKPREEQYASTYRVVSVLTVLHQDWLNGKEYKCKVSNKALPAPIEKTISKAKGQPREPQVYTLPPSRCELTKNQVSLSCAVKGFYPSDIAVEWESNGQPENNYKTTPPVLDSDGSFFLVSKLTVDKSRWQQGNVFSCSVMHEALHNHYTQKSLSLSPDYKDDDDK
chain: EPKSSDKTHTCPPCPAPELLGGPSVFLFPPKPKDTLMISRTPEVTCVVVDVSHEDPEVKFNWYVDGVEVHNAKTKPREEQYNSTYRVVSVLTVLHQDWLNGKEYKCKVSNKALPAPIEKTISKAKGQPREPQVCTLPPSRDELTKNQVSLWCLVKGFYPSDIAVEWESNGQPENNYKTTPPVLDSDGSFFLYSKLTVDKSRWQQGNVFSCSVMHEALHNRYTQKSLSLSP
light: DIVMTQSPLSLPVTPGEPASISCRSSQSLVHSNRNTYLHWYQQKPGQAPRLLIYKVSNRFSGVPDRFSGSGSGTDFTLKISRVEAEDVGVYYCGQGTQVPYTFGQGTKLEIKRTVAAPSVFIFPPSDEQLKSGTASVVCLLNNFYPREAKVQWKVDNALQSGNSQESVTEQDSKDSTYSLSSTLTLSKADYEKHKVYACEVTHQGLSSPVTKSFNRGEC
B6: CE115HA000 Y97D one-arm antibody (antibody, human IgG1, kappa, L234A L235A, N297A, name in Kabat numbering)
heavy: QVQLVESGGGVVQPGRSLRLSCAASGFTFSNAWMHWVRQAPGKGLEWVAQIKAKSNNYATYYAESVKGRFTISRDDSKNSLYLQMNSLKTEDTAVYYCRYVHDGAYYGVDAWGQGTTVTVSSASTKGPSVFPLAPSSKSTSGGTAALGCLVKDYFPEPVTVSWNSGALTSGVHTFPAVLQSSGLYSLSSVVTVPSSSLGTQTYICNVNHKPSNTKVDKKVEPKSCDKTHTCPPCPAPEAAGGPSVFLFPPKPKDTLMISRTPEVTCVVVDVSHEDPEVKFNWYVDGVEVHNAKTKPREEQYASTYRVVSVLTVLHQDWLNGKEYKCKVSNKALPAPIEKTISKAKGQPREPQVYTLPPSRCELTKNQVSLSCAVKGFYPSDIAVEWESNGQPENNYKTTPPVLDSDGSFFLVSKLTVDKSRWQQGNVFSCSVMHEALHNHYTQKSLSLSPDYKDDDDK
chain: EPKSSDKTHTCPPCPAPELLGGPSVFLFPPKPKDTLMISRTPEVTCVVVDVSHEDPEVKFNWYVDGVEVHNAKTKPREEQYNSTYRVVSVLTVLHQDWLNGKEYKCKVSNKALPAPIEKTISKAKGQPREPQVCTLPPSRDELTKNQVSLWCLVKGFYPSDIAVEWESNGQPENNYKTTPPVLDSDGSFFLYSKLTVDKSRWQQGNVFSCSVMHEALHNRYTQKSLSLSP
light: DIVMTQSPLSLPVTPGEPASISCRSSQSLVHSNRNTYLHWYQQKPGQAPRLLIYKVSNRFSGVPDRFSGSGSGTDFTLKISRVEAEDVGVYYCGQGTQVPYTFGQGTKLEIKRTVAAPSVFIFPPSDEQLKSGTASVVCLLNNFYPREAKVQWKVDNALQSGNSQESVTEQDSKDSTYSLSSTLTLSKADYEKHKVYACEVTHQGLSSPVTKSFNRGEC

What was measured:
[1] = target: T1, biotin-labeled human CD154; experiment: ECL competition: biotinylated CD154, CD3ε homodimer as competitor [1]
Description: Next, each obtained IgG was evaluated for its binding to CD3 and human CD154 at the same time by the competition method (electrochemiluminescence method (ECL method)).
A TBST solution containing 0.5% BSA (referred to as a blocking solution; the TBST solution was TBS (manufactured by Takara Bio Inc.) supplemented with 0.1% Tween 20) was added at 150 μL/well to streptavidin plate (MSD K.K.), and the plate was incubated at room temperature for 1 hour or longer. After removal of the blocking solution, each well was washed three times with 250 μL of a TBST solution. The antibody-antigen complex solution was added thereto at 50 L/well, and the plate was incubated at room temperature for 1 hour so that the biotinylated antigen-antibody-detection sulfo-tag antibody complex solution bound via the biotinylated antigen to the streptavidin plate. After removal of the antibody-antigen complex solution, each well was washed three times with a TBST solution, and a solution of 4× READ buffer (MSD K.K.) diluted 2-fold with water was added thereto at 150 μL/well, followed by the detection of the luminescence signal of the sulfo-tag using Sector Imager 2400 (MSD K.K.).

CD3ε homodimer protein = CD3ε homodimer protein (human, UniProt P07766 23-126, limits assumed); experiment: SPR Biacore T200, CD3e homodimer on CM4 chip, antibody as analyte, 25 C
Sequence of CD3ε homodimer protein (P07766 23-126 limits assumed): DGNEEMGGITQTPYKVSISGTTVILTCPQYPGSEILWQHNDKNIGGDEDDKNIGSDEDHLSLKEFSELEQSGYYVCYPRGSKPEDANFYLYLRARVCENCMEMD
Description: An appropriate amount of CD3ε homodimer protein was immobilized onto Sensor chip CM4 (GE Healthcare Japan Corp.) by the amine coupling method. Then, the antibody having an appropriate concentration was injected thereto as an analyte and allowed to interact with the CD3ε homodimer protein on the sensor chip. Then, the sensor chip was regenerated by the injection of 10 mmol/L glycine-HCl (pH 1.5). The assay was conducted at 25° C., and HBS-EP+ (GE Healthcare Japan Corp.) was used as a running buffer. […] Each parameter was calculated using Biacore T200 Evaluation Software (GE Healthcare Japan Corp.).
Specifically, when the amount of the antibody comprising CE115HA000 bound was defined as X and the amount of the H chain one-amino acid altered form bound was defined as Y, a value of Z (ratio of amounts bound)=Y/X was used.

Binder	Relative ECL reaction (to no antigen coating), CD3ε[+] [1]	KD ratio (KD of CE115HA000/KD of altered form) (CD3ε homodimer protein)
B1	1	–
B2	21	–
B3	1	–
B4	–	0.68
B5	–	6.74
B6	–	64.7
